Laboratory results from publication PMC9871032 (2023).

What was measured:
IL-2Rα (Homo sapiens) = IL-2Rα (Homo sapiens) (UniProt P01589); settings: cited from earlier work
[1] = target: dimeric IL-2 receptor (Homo sapiens) (UniProt P14784); settings: cited from earlier work
[2] = target: His-tagged ectodomain of human IL-2Rα (human) (UniProt P01589); assay: BLI; His-tagged IL-2Rα immobilised by amine coupling on AR2G biosensors; Octet RED96, 25 °C, D-PBS with 0.2% BSA and 0.05% Tween 20; two-fold dilutions (1.5-100 nM) of IL-2 and L72-FSY; dissociation 300 s; global 1:1 fit
[3] = target: extracellular domain of IL-2Rβ (UniProt P14784); assay: BLI; biosensors bearing the extracellular domain of IL-2Rβ; samples in a series of 3-fold dilutions
L72-FSY-IL-2 = L72-FSY-IL-2 (human, UniProt P60568 21-153, L72-FSY, fluorosulfate-L-tyrosine (FSY) at 72); assay: BLI

IL-2Rα (Homo sapiens), sequence (P01589 22-240): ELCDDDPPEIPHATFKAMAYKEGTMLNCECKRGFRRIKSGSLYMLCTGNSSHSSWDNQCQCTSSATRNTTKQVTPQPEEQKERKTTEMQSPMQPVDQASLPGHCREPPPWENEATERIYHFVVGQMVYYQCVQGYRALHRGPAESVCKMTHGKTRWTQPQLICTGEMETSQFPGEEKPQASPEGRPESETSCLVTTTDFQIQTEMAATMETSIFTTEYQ

IL-2 (from UniProt P60568)
Kd (IL-2Rα (Homo sapiens)): 10 nM | Kd [1]: 1 nM

L72-FSY-IL-2 (human IL-2 with fluorosulfate-L-tyrosine at position 72) (from UniProt P60568 21-153) (ligand)
Kd [2]: 10.3 nM

N-terminally PEGylated L72-FSY-IL-2 (from UniProt P60568 21-153) (ligand)
Kd [3]: 743 nM | Kd [2]: 45.1 nM

B1: extracellular domain of the β subunit of IL-2R (receptor)
chain: AVNGTSQFTCFYNSRANISCVWSQDGALQDTSCQVHAWPDRRRWNQTCELLPVSQASWACNLILGAPDSQKLTTVDIVTLRVLCREGVRWRVMAIQDFKPFENLRLMAPISLQVVHVETHRCNISWEISQASHYFERHLEFEARTLSPGHTWEEAPLLTLKQKQEWICLETLTPDTQYEFQVRVKPLQGEFTTWSPWSQPLAFRTKPAALGKDT
Kd (L72-FSY-IL-2): 70 nM
